Data published in patent US20240279344A1 (CDR LIFE, published 2024).

Biological target: T1, HLA-A2/MAGE-A4 complex, recombinant (HLA-A*02:01 extracellular domain, human b2m, MAGE-A4 peptide 230-239 …) (human, UniProt P04439 25-299 at identity 0.94); P61769 21-119)
T1 construct: also called MAGE-A4 pMHC; MAGE-A4/HLA-A2 complex
Assay: SPR, monovalent

Kd | Binder
6.53 nM | M1121 (bispecific antibody, V domains shown, Variant of humanized M0763; tested in SPR as anti-CD3 Fab x anti-MAGE-A4 scFv bispecific) VH: EVQLLESGGGSVQPGGSLRLSCTVSGFSLSNYAMSWVRQAPGKGLEWIGIVSSGGTTYYASWAKGRFTISKDTSKNTVYLQMNSLRAEDTASYYCAKDLYYGPTTYSAFNLWGQGTSVTVSS VL: SYELTQPPSVSVSPGQTASITCTADTLSRSYASWYQQKPGQSPVLVIYRDTSRPSGIPERFSGSNSGNTATLTISGTQAMDEADYYCATAPSSGSNFQLFGGGTKLTVL
11.7 nM | M1109 (bispecific antibody, V domains shown, Variant of humanized M0763; tested in SPR as anti-CD3 Fab x anti-MAGE-A4 scFv bispecific) VH: EVQLLESGGGSVQPGGSLRLSCTVSGFSLSNYAMSWVRQAPGKGLEWIGIVSSGGTTYYASWAKGRFTISKDTSKNTVYLQMNSLRAEDTASYYCAKDLYYAPTTYSAFNLWGQGTSVTVSS VL: SYELTQPPSVSVSPGQTASITCTADTLSRSYASWYQQKPGQSPVLVIYRDTSRPSGIPERFSGSNSGNTATLTISGTQAMDEADYYCATRPSSGSNFQLFGGGTKLTVL
19 nM | M1108 (bispecific antibody, V domains shown, Variant of humanized M0763; tested in SPR as anti-CD3 Fab x anti-MAGE-A4 scFv bispecific) VH: EVQLLESGGGSVQPGGSLRLSCTVSGFSLSNYAMSWVRQAPGKGLEWIGIVSSGGTTYYASWAKGRFTISKDTSKNTVYLQMNSLRAEDTASYYCAKDLYAGPTTYSAFNLWGQGTSVTVSS VL: SYELTQPPSVSVSPGQTASITCTADTLSRSYASWYQQKPGQSPVLVIYRDTSRPSGIPERFSGSNSGNTATLTISGTQAMDEADYYCATRPSSGSNFQLFGGGTKLTVL
4.12 nM | M1105 (bispecific antibody, V domains shown, Variant of humanized M0763; tested in SPR as anti-CD3 Fab x anti-MAGE-A4 scFv bispecific) VH: EVQLLESGGGSVQPGGSLRLSCTVSGFSLSNYAMSWVRQAPGKGLEWIGIVSSGGTTYYASWAKGRFTISKDTSKNTVYLQMNSLRAEDTASYYCAKALYYGPTTYSAFNLWGQGTSVTVSS VL: SYELTQPPSVSVSPGQTASITCTADTLSRSYASWYQQKPGQSPVLVIYRDTSRPSGIPERFSGSNSGNTATLTISGTQAMDEADYYCATRPSSGSNFQLFGGGTKLTVL
35.9 nM | M1112 (bispecific antibody, V domains shown, Variant of humanized M0763; tested in SPR as anti-CD3 Fab x anti-MAGE-A4 scFv bispecific) VH: EVQLLESGGGSVQPGGSLRLSCTVSGFSLSNYAMSWVRQAPGKGLEWIGIVSSGGTTYYASWAKGRFTISKDTSKNTVYLQMNSLRAEDTASYYCAKDLYYGPTAYSAFNLWGQGTSVTVSS VL: SYELTQPPSVSVSPGQTASITCTADTLSRSYASWYQQKPGQSPVLVIYRDTSRPSGIPERFSGSNSGNTATLTISGTQAMDEADYYCATRPSSGSNFQLFGGGTKLTVL
0.65 nM | M1111 (bispecific antibody, V domains shown, Variant of humanized M0763; tested in SPR as anti-CD3 Fab x anti-MAGE-A4 scFv bispecific) VH: EVQLLESGGGSVQPGGSLRLSCTVSGFSLSNYAMSWVRQAPGKGLEWIGIVSSGGTTYYASWAKGRFTISKDTSKNTVYLQMNSLRAEDTASYYCAKDLYYGPATYSAFNLWGQGTSVTVSS VL: SYELTQPPSVSVSPGQTASITCTADTLSRSYASWYQQKPGQSPVLVIYRDTSRPSGIPERFSGSNSGNTATLTISGTQAMDEADYYCATRPSSGSNFQLFGGGTKLTVL
0.65 nM | M1124 (bispecific antibody, V domains shown, Variant of humanized M0763; tested in SPR as anti-CD3 Fab x anti-MAGE-A4 scFv bispecific) VH: EVQLLESGGGSVQPGGSLRLSCTVSGFSLSNYAMSWVRQAPGKGLEWIGIVSSGGTTYYASWAKGRFTISKDTSKNTVYLQMNSLRAEDTASYYCAKDLYYGPTTYSAFNLWGQGTSVTVSS VL: SYELTQPPSVSVSPGQTASITCTADTLSRSYASWYQQKPGQSPVLVIYRDTSRPSGIPERFSGSNSGNTATLTISGTQAMDEADYYCATRPSSASNFQLFGGGTKLTVL
15.3 nM | M1113 (bispecific antibody, V domains shown, Variant of humanized M0763; tested in SPR as anti-CD3 Fab x anti-MAGE-A4 scFv bispecific) VH: EVQLLESGGGSVQPGGSLRLSCTVSGFSLSNYAMSWVRQAPGKGLEWIGIVSSGGTTYYASWAKGRFTISKDTSKNTVYLQMNSLRAEDTASYYCAKDLYYGPTTASAFNLWGQGTSVTVSS VL: SYELTQPPSVSVSPGQTASITCTADTLSRSYASWYQQKPGQSPVLVIYRDTSRPSGIPERFSGSNSGNTATLTISGTQAMDEADYYCATRPSSGSNFQLFGGGTKLTVL
1.69 nM | M1101 (bispecific antibody, V domains shown, Variant of humanized M0763; tested in SPR as anti-CD3 Fab x anti-MAGE-A4 scFv bispecific) VH: EVQLLESGGGSVQPGGSLRLSCTVSGFSLSNYAMSWVRQAPGKGLEWIGIVSSGGRKRYASWAKGRFTISKDTSKNTVYLQMNSLRAEDTASYYCAKDLYYGPTTYSAFNLWGQGTSVTVSS VL: SYELTQPPSVSVSPGQTASITCTADTLSRSYASWYQQKPGQSPVLVIYRDTSRPSGIPERFSGSNSGNTATLTISGTQAMDEADYYCATRPSSGSNFQLFGGGTKLTVL

Second part, the binder before the results:

Binder | Kd
M1100 (bispecific antibody, V domains shown, Variant of humanized M0763; tested in SPR as anti-CD3 Fab x anti-MAGE-A4 scFv bispecific) VH: EVQLLESGGGSVQPGGSLRLSCTVSGFSLSNYAMSWVRQAPGKGLEWIGIVSSGGTTYYASWAKGRFTISKDTSKNTVYLQMNSLRAEDTASYYCAKDLYYGPTTYHDLNLWGQGTSVTVSS VL: SYELTQPPSVSVSPGQTASITCTADTLSRSYASWYQQKPGQSPVLVIYRDTSRPSGIPERFSGSNSGNTATLTISGTQAMDEADYYCATRPSSGSNFQLFGGGTKLTVL | 0.66 nM
M1122 (bispecific antibody, V domains shown, Variant of humanized M0763; tested in SPR as anti-CD3 Fab x anti-MAGE-A4 scFv bispecific) VH: EVQLLESGGGSVQPGGSLRLSCTVSGFSLSNYAMSWVRQAPGKGLEWIGIVSSGGTTYYASWAKGRFTISKDTSKNTVYLQMNSLRAEDTASYYCAKDLYYGPTTYSAFNLWGQGTSVTVSS VL: SYELTQPPSVSVSPGQTASITCTADTLSRSYASWYQQKPGQSPVLVIYRDTSRPSGIPERFSGSNSGNTATLTISGTQAMDEADYYCATRASSGSNFQLFGGGTKLTVL | 0.75 nM
M1114 (bispecific antibody, V domains shown, Variant of humanized M0763; tested in SPR as anti-CD3 Fab x anti-MAGE-A4 scFv bispecific) VH: EVQLLESGGGSVQPGGSLRLSCTVSGFSLSNYAMSWVRQAPGKGLEWIGIVSSGGTTYYASWAKGRFTISKDTSKNTVYLQMNSLRAEDTASYYCAKDLYYGPTTYAAFNLWGQGTSVTVSS VL: SYELTQPPSVSVSPGQTASITCTADTLSRSYASWYQQKPGQSPVLVIYRDTSRPSGIPERFSGSNSGNTATLTISGTQAMDEADYYCATRPSSGSNFQLFGGGTKLTVL | 1.18 nM
M1115 (bispecific antibody, V domains shown, Variant of humanized M0763; tested in SPR as anti-CD3 Fab x anti-MAGE-A4 scFv bispecific) VH: EVQLLESGGGSVQPGGSLRLSCTVSGFSLSNYAMSWVRQAPGKGLEWIGIVSSGGTTYYASWAKGRFTISKDTSKNTVYLQMNSLRAEDTASYYCAKDLYYGPTTYSSFNLWGQGTSVTVSS VL: SYELTQPPSVSVSPGQTASITCTADTLSRSYASWYQQKPGQSPVLVIYRDTSRPSGIPERFSGSNSGNTATLTISGTQAMDEADYYCATRPSSGSNFQLFGGGTKLTVL | 0.48 nM
M1127 (bispecific antibody, V domains shown, Variant of humanized M0763; tested in SPR as anti-CD3 Fab x anti-MAGE-A4 scFv bispecific) VH: EVQLLESGGGSVQPGGSLRLSCTVSGFSLSNYAMSWVRQAPGKGLEWIGIVSSGGTTYYASWAKGRFTISKDTSKNTVYLQMNSLRAEDTASYYCAKDLYYGPTTYSAFNLWGQGTSVTVSS VL: SYELTQPPSVSVSPGQTASITCTADTLSRSYASWYQQKPGQSPVLVIYRDTSRPSGIPERFSGSNSGNTATLTISGTQAMDEADYYCATRPSSGSNAQLFGGGTKLTVL | 0.89 nM
M1123 (bispecific antibody, V domains shown, Variant of humanized M0763; tested in SPR as anti-CD3 Fab x anti-MAGE-A4 scFv bispecific) VH: EVQLLESGGGSVQPGGSLRLSCTVSGFSLSNYAMSWVRQAPGKGLEWIGIVSSGGTTYYASWAKGRFTISKDTSKNTVYLQMNSLRAEDTASYYCAKDLYYGPTTYSAFNLWGQGTSVTVSS VL: SYELTQPPSVSVSPGQTASITCTADTLSRSYASWYQQKPGQSPVLVIYRDTSRPSGIPERFSGSNSGNTATLTISGTQAMDEADYYCATRPSAGSNFQLFGGGTKLTVL | 0.79 nM
M1125 (bispecific antibody, V domains shown, Variant of humanized M0763; tested in SPR as anti-CD3 Fab x anti-MAGE-A4 scFv bispecific) VH: EVQLLESGGGSVQPGGSLRLSCTVSGFSLSNYAMSWVRQAPGKGLEWIGIVSSGGTTYYASWAKGRFTISKDTSKNTVYLQMNSLRAEDTASYYCAKDLYYGPTTYSAFNLWGQGTSVTVSS VL: SYELTQPPSVSVSPGQTASITCTADTLSRSYASWYQQKPGQSPVLVIYRDTSRPSGIPERFSGSNSGNTATLTISGTQAMDEADYYCATRPSSGANFQLFGGGTKLTVL | 0.89 nM
M1107 (bispecific antibody, V domains shown, Variant of humanized M0763; tested in SPR as anti-CD3 Fab x anti-MAGE-A4 scFv bispecific) VH: EVQLLESGGGSVQPGGSLRLSCTVSGFSLSNYAMSWVRQAPGKGLEWIGIVSSGGTTYYASWAKGRFTISKDTSKNTVYLQMNSLRAEDTASYYCAKDLAYGPTTYSAFNLWGQGTSVTVSS VL: SYELTQPPSVSVSPGQTASITCTADTLSRSYASWYQQKPGQSPVLVIYRDTSRPSGIPERFSGSNSGNTATLTISGTQAMDEADYYCATRPSSGSNFQLFGGGTKLTVL | 1.45 nM
M1117 (bispecific antibody, V domains shown, Variant of humanized M0763; tested in SPR as anti-CD3 Fab x anti-MAGE-A4 scFv bispecific) VH: EVQLLESGGGSVQPGGSLRLSCTVSGFSLSNYAMSWVRQAPGKGLEWIGIVSSGGTTYYASWAKGRFTISKDTSKNTVYLQMNSLRAEDTASYYCAKDLYYGPTTYSAFALWGQGTSVTVSS VL: SYELTQPPSVSVSPGQTASITCTADTLSRSYASWYQQKPGQSPVLVIYRDTSRPSGIPERFSGSNSGNTATLTISGTQAMDEADYYCATRPSSGSNFQLFGGGTKLTVL | 4.2 nM
M1120 (bispecific antibody, V domains shown, Variant of humanized M0763; tested in SPR as anti-CD3 Fab x anti-MAGE-A4 scFv bispecific) VH: EVQLLESGGGSVQPGGSLRLSCTVSGFSLSNYAMSWVRQAPGKGLEWIGIVSSGGTTYYASWAKGRFTISKDTSKNTVYLQMNSLRAEDTASYYCAKDLYYGPTTYSAFNLWGQGTSVTVSS VL: SYELTQPPSVSVSPGQTASITCTADTLSRSYASWYQQKPGQSPVLVIYRDTSRPSGIPERFSGSNSGNTATLTISGTQAMDEADYYCAARPSSGSNFQLFGGGTKLTVL | 1.21 nM
M1110 (bispecific antibody, V domains shown, Variant of humanized M0763; tested in SPR as anti-CD3 Fab x anti-MAGE-A4 scFv bispecific) VH: EVQLLESGGGSVQPGGSLRLSCTVSGFSLSNYAMSWVRQAPGKGLEWIGIVSSGGTTYYASWAKGRFTISKDTSKNTVYLQMNSLRAEDTASYYCAKDLYYGATTYSAFNLWGQGTSVTVSS VL: SYELTQPPSVSVSPGQTASITCTADTLSRSYASWYQQKPGQSPVLVIYRDTSRPSGIPERFSGSNSGNTATLTISGTQAMDEADYYCATRPSSGSNFQLFGGGTKLTVL | 9.65 nM
M1119 (bispecific antibody, V domains shown, Variant of humanized M0763; tested in SPR as anti-CD3 Fab x anti-MAGE-A4 scFv bispecific) VH: EVQLLESGGGSVQPGGSLRLSCTVSGFSLSNYAMSWVRQAPGKGLEWIGIVSSGGTTYYASWAKGRFTISKDTSKNTVYLQMNSLRAEDTASYYCAKDLYYGPTTYSAFNLWGQGTSVTVSS VL: SYELTQPPSVSVSPGQTASITCTADTLSRSYASWYQQKPGQSPVLVIYRDTSRPSGIPERFSGSNSGNTATLTISGTQAMDEADYYCSTRPSSGSNFQLFGGGTKLTVL | 0.91 nM
